In US20110263026, “Construction of Protein-Responsive shRNA/RNAi Control System Using RNP Motif” (JAPAN SCIENCE AND TECHNOLOGY AGENCY, published 2011):

Assays:
L7Ae [1] = molecular target: T1, L7Ae (UniProt O29494 SEQ:21-139); assay: EMSA; 40 nM RNA, 80-640 nM L7Ae; sequence-specific binding stated for Box C/D only; conditions: tags: His6 (pET-28b+, Ni-NTA); hairpin (shRNA)
Procedure: (§1) The binding between each shRNA and the protein was confirmed as follows: after dilution with a dialysis buffer to bring the protein concentration to concentrations 25 times the final concentrations of 80 to 640 nM, 2 μL of the protein solution with each concentration, 2 μL of 1 μM shRNA-Box C/D-GFP, 6 μL of ultrapure water, and 40 μL of Opti-MEM I (trademark, Invitrogen Corp.) were mixed and left standing at room temperature for 30 minutes to bind shRNA (40 nM) to L7Ae (80 nM, 160 nM, 320 nM, or 640 nM). shRNA-GFP and shRNA-Box C/D mut-GFP were bound to L7Ae in the same way. To each solution, 13 μL of 5× dye solution (0.25% BPB, 30% glycerol) was added and mixed, and 15 μL of this mixed solution was layered on a nondenaturing 15% polyacrylamide (1/30 bisacrylamide) gel and electrophoresed at 250 V at 4° C. for 50 minutes. After the electrophoresis, the gel was stained with SYBR Green for 15 minutes, and bands were confirmed using FLA-7000 (FUJI FILM).

L7Ae [2] = molecular target: T1, L7Ae; assay: EMSA; 40 nM RNA, 80-640 nM L7Ae, Opti-MEM, room temperature; conditions: tags: His6 (pET-28b+, Ni-NTA); hairpin (shRNA) with Box C/D kink-turn loop
Procedure: as §1

T1 sequence (O29494 whole entry): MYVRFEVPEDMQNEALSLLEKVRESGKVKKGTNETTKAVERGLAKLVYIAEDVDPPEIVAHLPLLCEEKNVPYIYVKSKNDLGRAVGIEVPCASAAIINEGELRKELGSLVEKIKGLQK

B1: shRNA-Box C/D-mut-GFP (ssRNA)
RNA: GGCAUCAAGGUGAACUUCAGCUGCCCGAAAGGGCGUCAUGCUGAAGUUCACCUUGAUGCCAG
L7Ae [1]
  binding result: no binding

B2: shRNA-Box C/D-GFP (ssRNA)
RNA: GGCAUCAAGGUGAACUUCAGCUGACCCGAAAGGGCGUGAUGCUGAAGUUCACCUUGAUGCCAG
L7Ae [2]
  binding result: binds

B3: shRNA-GFP (ssRNA)
RNA: GGCAUCAAGGUGAACUUCAAGAUCCAGCAUAGGGAUCUUGAAGUUCACCUUGAUGCCAG
L7Ae [1]
  binding result: no binding
